Target: PELI2 (UniProt Q9HAT8)
Assay: anti-FLAG co-IP, phospho-STING blot quantified

STING (from UniProt Q86WV6) STING-5T>A
binding against the reference (reference: STING only-T354, sites T354): lost | binding against the reference (reference: STING only-T356, sites T356): lost

Reference: publication PMC11246219
